Measurements: the DeepSol protein solubility set

experiment: soluble on expression in E. coli; label from the status in PepcDB or PDB records

Row | Sequence | soluble on expression in E. coli
1 | MKYFAYGSNMSLLRLKERVPSSKKLGIVTLKKHQLRFNMSGDDDSGKCDSFETNNHEDIVIGALFEIDENEKDALDRAESLGDGYDEKFVFVQSNSGEVFEALTYYAIKIDASLQPYSWYLNHVIIGAKETKLPTDYLAIIESVECIEDPDTSRDAKQRAMYVLEHHHHHH | not soluble
2 | MSLTWYHELGIKYPLFQGGMAWASNAELVAAVSNNGALGIIGSGGRTANELRRMIRKTKTLTSQPFGVNLMLLDKNIKQLLEVICEEKISVVTTGAGSPKEIIDTIIANNIKLFPVVPNKEIALKMLNLPISGIIVEGNEAGGHVGSQNLASLLKEIAPICPLPLIAAGGIYDHHTASLANILGANGVQVGTAFLLAKECQISPIYQELICKGEENGTSLISDKNGHLTRLLNISSEYPLNKSLKAAVEKGDLINGAFMAGSSSAYLEKIEPVENIIQRIMKKEGHHHHHH | not soluble
3 | MVKPMHLFAVVDALEQAQQFQQVLASRDVSTELVQIEQLNARFLRHHPELALCVDLDGLWLSANGMKMQPDWQAEIPRLKRASLKSEMIARACQINEQPSLIDATAGLGHDSLLMAYLGAHVTLVERHPVLFTLLEDAKSKAENDPFLSKYMQRIHLIFQDAHYYLQQCNQDDRKVDVIYLDPMFPQRDQHHQVIKKQAQVKKQMQLLHLLLPEDGEMDLGDQLLPLAQQIASRVVVKRPKHAVFLNEQQPDHQWQGDACRFDAYFQISM | not soluble
4 | FDAIAGSISDAVVTIDADSEVVYANDEAVELTGYDRKELVGDDFAKVIPEHLRSAHFEGLDRYLRTGNRNVDWDYLELPLVTAAGDQLTVAVSFGDFERNGQWFCTGVLRDIS | not soluble
5 | MQHECNTDYTIAKYIPYIKPKYVTQEGTTVLYVRYNYNRNKRTLISTGYNIKPEHWDAKRKWIKRACPHYEEIDACLIKITSKLGDILTYAKVNGIDPTVDFVLLELEKNREYDLRPNRVDMFDALERYIVEKAPSVSADQIKDYRTLRKHLTAFKEYSSQPVTFRNLNLTFYNEFMDYLFHKVVKPNGTVGLLTNSAGKIIRLLKGFVNYQIVKGIIPPIDLKNFKVVEEETDAIYLNEKELAAIYELDLSDDKQLEEIRDVFITGCFTGLRYSDLSTLSPEHIDLDNENINLKQRKVHKAVVIPMIDYVPEILKKYNYDLPKIPRYMFNERVKELGRKIKLSQKIEVVRRKGKEREKRVYEKWEMISSHTCRRSFCTNMYLSGFPAAELMRISGHKSPSAFMRYIKVDNQQAAKRLKELRAKLAR | not soluble
6 | MGHHHHHHSHMKFEAFKIVPVGYIRKEKNVFIEILPEFREGMEGLREGDWIKLILWFHKSDTPELRRILKVHPHGNPENPLTGVFATRSPFRPNPYTVKVHKIEGNRIYIDWIDAEDGTPVSDIKIFPERYDCPKENYQSTSRLKS | soluble
7 | MQSTFRRSTLAALRGFALPSDAISIVPSAADYRRCLLEKIASATRRIYIIALYLQQDEAGQEILDALYAAKAARPELDVVVLVDWFRAQRGLIGAGRQPGNSTWYQAQNLEYDEEVPIYGVPVQTRELFGVLHLKGSVIDDCVIYSGASINNVYLHKLDKYRLDRYHLIESAPLADSFEHLVQREILPSAAVHRLDLQSPPSSRSLRSEIRAFRSDLKRATYDTSAGDKENGQLRVIPLLGVGPRNSLNRAICDLIASSKIQLTICTPYFNLPVAVTREVNRALKRGVKVDIIIGDKTANDFFIDPDEPFKVISALPYLYEISLRRFAHKHQKAIAQQRLNVHLWKHGDNTFHLKGIWVDQRYTLLTGNNLNPRAFNLDLENGLLIDDPQGQWTDPREAEIAQLMRNTQRVNQYDELDTLANYPEGVRKFLKRVSRVRVERLLYRILLEHHHHHH | not soluble
8 | MGSDKIHHHHHHMYLAYYGFAEKPFQLKPDPNFFFPSRGHKRAAAYLEYGLSQEDGFIIITGDVGAGKTTLMRYLFQKLRQERVAAAQLVSTRLDPDDALRMVAAAFGLSYEGLSKAALLLELERFMRKCERESTRVLLVVDEAQNLLPQTLEELRMLSNFQSDNRPLLQTFLLGQPEFRRTLLGSQMQQLRQRVIATYHLGPLDQAETRAYIEHRLQKAGWNGSPVLQDEIFEVIHNFSAGIPRKINLFCDRLLIMGCLEELQTLGKAEANEVMLDIQKEFDLAVSPE | not soluble
9 | MSLQAELVIKNGLVILETGEVITDVAVQGGKIVAIGQDLSGERVIDATGLVVSPGMVDAHVHITDPGGGYRDEWEGYVTGTAACAKGGVTTFMEMPLNQIPATVDKTSLEIKYKAGENKLKVDVGSFGGVVPTNLADGIQELDEGGVSGYKCFLGTCGDRSIEGDFQNVDDYSLYEGMKQVAKTGKVLAIHAENAPITDKLGAVAYQNGETTLAAYVATRPVFTEVEAIQKAILFAKETGCRIHICHVACQEGVEEVLKAQAEGVDVTCETCTHYLYFTTDELDAIGPVVKCSPPIRDADQQAALWNHVQTGGIAFVTSDHSPCTPDLKDTTNAFEAWGGISGVQNNVDVLFDEAVQKRGLSLKQFADMIAANPADRYHLAQKGRISIGKDADFVLIKPNAPYILKAEDLEYRNKISPYIGREIGAQVIQTILRGETIYAQETGVTEAFNGVFIKNEGHHHHHH | soluble
10 | MGHHHHHHSHGNLVTELIYVHSKLLIADDNTVIIGSANINDRSMLGKRDSEMAVIVQDTETVPSVMDGKEYQAGRFARGLRLQCFRVVLGYLDDPSEDIQDPVSDKFFKEVWVSTAARNATIYDKVFRCLPNDEVHNLIQLRDFINKPVLAKEDPIRAEEELKKIRGFLVQFPFYFLSEESLLPSVGTKEAIVPMEVWT | not soluble
11 | MAIQTSNLGYPRIGLQREWKKTLEAFWSNKINEEQFLTTMKEIRLQHVKVQQEKGIELIPIGDFTYYDHVLDTAYMLGFIPSRFSEFTSYLDVYFAMARGSKDHVASEMTKWFNTNYHYIVPEYEEGLQISLKDNRPLRLYEEAKQELGVDGKPVILGPYTFLKLAKGYTQEQFATILKQLVAPYVQLLSELHAAGAQIIQVDEPIFASLTKEEVQQAKEIYEAIRKEVPNATLLLQTYFDSVEENYEEIITFPVSSIGLDFVHGKEGNLNAISKYGFPADKTLAVGCIDGRNIWRADLDEVLTLFTTLQKQVQTKDLIVQPSCSLLHTPIDKTEETHLSTELFDALAFANQKLEELVLIHSALTQGTESISNELETYRNVHHTIRSSAARNREDVKAARTALKEEDFSRPLPFEKRYELQQVALKLPLLPTTTIGSFPQTTEVRQTRKEWRNGIISNEQYEQFIEKETEKWIRYQEEIGLDVLVHGEFERTDMVEYFGERLAGFSFTKNGWVQSYGSRCVKPPVIYGDVAFINGMTIKETVYAQSLTEKVVKGMLTGPVTILNWSFVRNDIPRKEVSYQIALALRHEIELLESSGIRVIQVDEPALREGMPLKEKDWDAYITWAVQSFLLATSSVANETQIHTHMCYSNFEDIVDAIRALDADVISIETSRSHGEFIDTLKHTTYEKGIGLGVYDIHSPRVPSKDEMYKIVEQSLQVCDPKYFWINPDCGLKTRRTEEVIPALEHMVQAAKDARSLLKTNA | not soluble
12 | PREFVLRPAPQGRTVRCRLTRDKKGMDRGMYPSYFLHLDTEKKVFLLAGRKRKRSKTANYLISIDPTNLSRGGENFIGKLRSNLLGNRFTVFDNGQNPQRGYSTNVASLRQELAAVIYETNVLGFRGPRRMTVIIPGMSAENERVPIRPRNASDGLLVRWQNKTLESLIELHNKPPVWNDDSGSYTLNFQGRVTQASVKNFQIVHADDPDYIVLQFGRVAEDAFTLDYRYPLCALQAFAIALSSFD | soluble
13 | MAGYALKRLMTEYKELTTRPPEGIIAAPIDEDNFFEWECLITGPEETCFANGVFPARITFPQDYPLSPPKMRFTCGIFHPNIYADGRVCISILHAPGDDPTGYELSNERWSPVQSIEKILLSVVSMLAEPNDESPANVSAAKMWREDRAQFEKIADSLVRKTLCLPASEV | not soluble
14 | MSTPDDPVIHSPPSIGAAPGMNGYHGSGVKLEESSGACGSPDDGLLDSSEESRRRQKTCRVCGDHATGYNFNVITCESCKAFFRRNALRPKEFKCPYSEDCEINSVSRRFCQKCRLRKCFTVGMKKEWILNEEQLRRRKNSRLNNTGTCNKRSQPGNQQSPQGPNQQPHLSPHHPGVAIYPPQPQRPLTINPMDNQMMHHMQANRPNAMPQLISPPGAQPYPLTSPVGSSASDSPPNRSLTMMHNGEKSPDGYDPNIMAHRAPPPSFNNRPKMDSGQVVLSTEEYKQLLSRIPGAQVPGLMNEEEPINKRAAYNCNGHPMPAETTPPYSAPMSDMSLSRHNSTSSGTEKNHMTHSTVSAIPGNSAQNHFDIASFGMGIVTATGGGDAAEEMYKRMNMFYENCIQSALDSPENQEPKPQEAMIPKEEYMTPTHGFQYQSDPYQVPPAERNINYQLNAAELKALDAVREAFYGMDDPMEQGRQMQSFLKANKTPADIMNIMDVTMRRFVKVAKGVPAFREVSQEGKFSLLKGGMIEMLTVRGVTRYDASTNSFKTPTIKGQNVSVNVDDMFAKLNANAQAQKAKCLEFFGFFDEEIKKNELAVYLVMLAVLFSVRSDPPMNENDVRIVTERHNHFMSLLNRYLESLFGEQARRIFERIPKALGLLNEIARNAGMLFMGTVRSGEAEELPGEFFKIK | not soluble
15 | MGGSALNQGVLEGDDAPGQSLYERLSQRMLDISGDRGVLKDVIREGAGDLVAPDASVLVKYYGYLEHLDRPFDSNYFRKTPRLMKLGEDITLWGMELGLLSMQRGELARCFVLGKLLDSQGPSLHLYLRAS | not soluble
16 | MNNIPVEIRLLKNRTVLVLTYGDEPKNLPAEFLRVYSPSAEVRGHGVGQDVLQTGKADVQIADLQPVGQYALKISFSDGHDSGLYDWAYLHRLAYGYDAMWQEYLDKLAAAGASRFEEK | not soluble
17 | QFLQKQHFLILGLAKSGYAAASILHEKGIYVAVNDQKPFEENEPAQKLSEKGIEVVCGEHPVSLFDQHQITILIKNPGIPYENIMVQEAEKRGIPVW | not soluble
18 | VLSAIGIVPSAPVLVPELAGAAAAELADLGAAVIAAASLLPKSWIAVGTGRADDVVRPTDVGTFAGFGADVRVGLAPQDGDGVAVPVELPLCALLTAWVRGQARPEARAQVHVYASDHGSDAAVARGRQLRADIDREPDPIGVLVVADGLNTLTPRAPGGYDPDGAGMQRALDDALASGDLAVLTRLPAQVLGRVAFQVLAGLAEPGPRSAKEFYRGAPHGVGYFAGVWQP | not soluble
19 | MAGASVKVAVRVRPFNSREMSRDSKCIIQMSGSTTTIVNPKQPKETPKSFSFDYSYWSHTSPEDINYASQKQVYRDIGEEMLQHAFEGYNVCIFAYGQTGAGKSYTMMGKQEKDQQGIIPQLCEDLFSRINDTTNDNMSYSVEVSYMEIYCERVRDLLNPKNKGNLRVREHPLLGPYVEDLSKLAVTSYNDIQDLMDSGNKPRTVAATNMNETSSRSHAVFNIIFTQKRHDAETNITTEKVSKISLVDLAGSERADSTGAKGTRLKEGANINKSLTTLGKVISALAEMDSGPNKNKKKKKTDFIPYRDSVLTWLLRENLGGNSRTAMVAALSPADINYDETLSTLRYADRAKQIRNTVSVNHHHHH | soluble
20 | MSLSYSNILVAVAVTPESQQLLAKAVSIARPVKGHISLITLASDPEMYNQLAAPMLEDLRNVMQEETQSFLDKLIQDAGYPVDKTFIAYGELSEHILEVCRKHHFDLVICGNHNHSFFSRASCSAKRVITSSEVDVLLVPLTGDEGHHHHHH | soluble
21 | MAKWGEGDPRWIVEERADATNVNNWHWTERDASNWSTEKLKTLFLAVRVENEEGKCEVTEVNKLDGEASINNRKGKLIFFYEWTIKLNWTGTSKSGVQYKGHVEIPNLSDENSVDEVEISVSLAKDEPDTNLVALMKEDGVKLLREAVGIYISTLKTEFTQGMILPTVNGESVDPVGQPALKTETCKAKSAPSKSQAKPVGVKIPTCKITLKETFLTSPEELYRVFTTQELVQAFTHAPAALEADRGGKFHMVDGNVTGEFTDLVPEKHIAMKWRFKSWPEGHFATITLTFIDKNGETELCMEGRGIPAPEEERTRQGWQRYYFEGIKQTFGYGARLF | soluble
